In patent US20250019465A1, “COMPOSITIONS AND METHODS FOR RARE HEPARAN SULFATE GLYCAN-TARGETED CANCER TREATMENT” (THE BOARD OF REGENTS OF THE UNIVERSITY OF TEXAS SYSTEM, priority 2021, published 2025):
Each block holds one molecule with its values, some of them ahead of it.

Experiments:
[1] = test system: RenCa kidney cancer; experiment: RenCa kidney cancer tumor, intra-tumoral glycan injection; assay type: in vivo, BALB/c mice
Procedure: (§1) B16 melanoma cells (5×10^5 cells/mouse) were implanted s.c. into B6 mice (n=4); on day 6, 1 mg of Glycan #3 (G3) or Glycan #12 (G12, see FIG. 1A) was injected intra-tumorally 5 times every 2 days. Tumor volume was measured (FIG. 10A). On day 17, tumors (photos of 2 representatives) were excised. […] Similar experiments were performed with RenCa kidney cancer in BALB/c mice and data are shown in FIG. 10C (tumor volume) and 10D (expression of angiogenic factors). Data shown is representative of 2 experiments. *p<0.0001.

[2] = test system: B16 melanoma cells; experiment: B16 melanoma s.c. tumor, intra-tumoral glycan injection; assay type: in vivo, B6 mice
Procedure: as §1

[3] = test system: DC-HIL-Fc; experiment: DC-HIL-Fc binding to HS oligosaccharide microarray; conditions: DC-HIL-Fc 10 mg/ml, visualized by Cy-3, FIG. 1B
Procedure: Various HS oligosaccharides (4-8-mers of HS disaccharide) were imprinted on microarray (Gycan Therapeutics Inc). These glycans were chosen based on sulfation patterns in mammalian cells (FIG. 1A). DC-HIL-Fc (10 mg/ml) was applied and then hybridized to the microaway and visualized by Cy-3 (mean±SD, n=6). […] SVEC mouse endothelial cells or activated T-cells were then incubated with DC-HIL-Fc (10 mg/ml) plus indicated oligoglycans, and DC-HIL binding was fluorescently stained with anti-Fc Ab and FACS analysis. FIG. 1C provides histograms showing binding of Fc control (blue) or DC-HIL-Fc (red), respectively.

[4] = test system: DC-HIL-induced angiogenesis; experiment: Matrigel plug assay of DC-HIL-induced angiogenesis; assay type: in vivo, mice; conditions: DC-HIL-Fc 200 nM with 10× molecular excess of glycan in matrigel, s.c., 2 weeks
Procedure: In order to test the role rHS (Glycan #12) plays in controlling angiogenesis, DC-HIL-Fc (DCH) or Fc (200 nM) was mixed with 10× molecular excess of Glycan #3 or Glycan #12 (See FIG. 1A) and added to matrigel, and implanted s.c. into mice; 2 weeks later, plugs were excised and observed for blood vessels under microscope. Representative photos are shown (FIG. 9A). Plugs were quantified for Hb content (FIG. 9B). Red-dashed line indicates Hb level in Fc-control plug. Data are shown average±SD, n=4.

[5] = ELISA: DC-HIL-Fc binding to Glycan #12-coated wells with increasing dose of 1A7 SdAb; conditions: DC-HIL-Fc 1 mg/ml, increasing dose of 1A7 SdAb, FIG. 3D
Procedure: SdAbs were obtained as described in Example 2. All SdAb clones were purified from DNA-transfected CHO cells. […] Biotinylated Glycan #12 (0.5 mg/ml) was immobilized to ELISA wells precoated with streptavidin (1 mg/ml) and incubated with increasing doses of 1A7 SdAb (FIG. 3A), FGF2 (negative control, FIG. 3B) and VEGF (positive control, FIG. 3C). After incubating for 1 h, wells were washed and binding measured by anti-c-myc Ab (OD450); SdAb has the C-terminal c-myc tag. In FIG. 3D, DC-HIL-Fc (1 mg/ml) was incubated with Glycan #12-coated wells, with increasing dose of 1A7 SdAb. % inhibition is shown. […] In FIG. 3E: FGF2 or VEGF (0.25 or 0.5 mg/ml) was added to Glycan #12-wells with 0.5 mg/ml of 1A7 or control SdAb (Ctrl), which is specific for KLH. % inhibition is shown. To examine the expression of the 1A7 epitope, immortalized murine […] cells (SVEC) were treated with 50 mM Sodium Cholate (red histogram) or untreated (Blue). Next day, cells were analyzed by FACS for expression of 1A7 epitope (FIG. 3F). […] FIG. 3H summarizes all data from experiments of binding/inhibition and expression analysis on different tumor lines. “Block DC-HIL (or VEGF or FGF2)” means blocking of binding to Glycan #12.

[6] = test system: human SK-MEL-28 melanoma cell line; experiment: Lung metastasis of human SK-MEL-28 melanoma cells in xenograft NSG mice; assay type: in vivo; conditions: single i.v. injection 10 mg/mouse one day before SK-MEL-28 i.v., Day 14, vs KLH
Procedure: A final experiment was performed to determine the effect of an anti-rHS antibody on human lung metastasis in a xenograft mouse model. Immuno-deficient NSG mice (n=5) were injected i.v. with KLH or 1A7 SdAb (10 mg/mouse). Next day, mice were given i.v. injection of 2×10^5 human SK-MEL-28 melanoma cell line. Note: Ab injection is just one time. On Day 14, lung was enumerated by FACS for GFP^+ cells (FIG. 16A) and the number in 5×10^5 lung cells (average±sd, n=5) are summarized (FIG. 16B). *p<0.0001. Data are representative of 2 separate experiments. 1A7 single injection decreased human melanoma in lung by 84% (FIGS. 16A and 16B).

[7] = test system: LacZ-LL2 cells; experiment: Spontaneous lung metastasis from resected s.c. LacZ-LL2 primary tumor; assay type: in vivo, mice; conditions: Ab injection every 3 days after tumor resection, lungs 2 weeks later
Procedure: Briefly, mice were implanted s.c. with LacZ-LL2 cells, 2 weeks later, tumor was resected surgically. Mice were then treated with Ab injection every 3 days. 2 weeks later, lungs were excised and stained with X-gal (labeled LacZ-LL2 cells in blue) and blue stains were counted. FIG. 17B provides representative images of lung sections stained with X-gal, showing by green or red arrows. The number of tumor cells per field of view (FOV) were counted and plotted in FIG. 17C alongside and average of 5 FOVs. Each dot represents an individual mouse.

[8] = test system: LL2 cells; experiment: Experimental lung metastasis after i.v. injection of LL2 cells; assay type: in vivo, mice; conditions: day 18, vs KLH
Procedure: (§2) On day 6 after implantation s.c. of B16 melanoma cells (2×10^5 cells/mouse), mice were treated i.p. with 1A7 or KLH Ab (10 mg/mouse, every 2 days, 5×, shown by reverse arrows). In separate experiments, tumor free mice were injected intravenously (i.v) with 1A7 or KLH (10 mg/mouse) either one day before (d-1) or one day after (d1) intravenous (i.v) injection with B16 or LL2 cells (2×10^5 cells/mouse, n=5). On day 12 (for mice injected with B16 cells) or day 18 (for mice injected with LL2 cells), the number of GFP+ cells in 5×10^5 lung cells was determined via FACS. FIG. 11C-11E summarize numbers of positive cells in each condition.

[9] = HS glycan microarray analysis of 1A7 SdAb (53 glycan compounds); assay type: binding; conditions: 1A7 SdAb 10 μg, anti-c-myc label, FIG. 4
Procedure: 1A7 SdAb (10 μg) was hybridized with HS glycan microarray consisting of 53 glycan compounds (Glycan Therapeutics Inc) and fluorescently labeled with anti-c-myc. Hybridized arrays were analyzed for fluorescence intensity (U); average±sd, n=100). SdAb has the C-terminal c-myc tag.

[10] = test system: B16F10 melanoma cells; experiment: B16F10 melanoma s.c. tumor growth and tumor IHC, rHS Ab vs PD1 Ab; assay type: in vivo, B57BL/6 mice
Procedure: Antitumor activity of rHS Ab to B16 melanoma was examined. Briefly, B16F10 melanoma cells (5×10^5 cells/mouse) were implanted s.c. into B57BL/6 mice (n=5). Six days later, mice were treated with i.p. injection of Ab every 2 days; 1A7 rHS Ab (20 mg/mouse), PD1 ([…]), rHS/PD1 (20 mg and 200 mg, respectively) or control (Ctrl) Ab ([…]). Tumor volume was measured every 2 days (FIG. 20A). On day 15, all mice were euthanized, tumors were excised and IHC-stained with marker Ab (CD4, CD8, CD11b, and CD31) (FIG. 20B). Positive staining is assayed by % positively stained areas in 4.5 mm2 view (mean±sd, n=5). […] Thus, rHS Ab inhibited melanoma growth, reversing immune suppression and tumor angiogenesis.

[11] = test system: Pan-T cells; experiment: Anti-CD3-induced Pan-T cell proliferation (3H-thymidine) on wells coated with 1A7; assay type: cell-based, human; conditions: wells pre-coated with 4 mg/well Ab plus increasing doses of anti-CD3 Ab, 2 days, vs KLH control Ab
Procedure: The ability of 1A7 to affect induction of T-cell activation using anti-CD3 antibodies was tested. Pan-T cells isolated from blood sample of a healthy donor were incubated with wells (2×10^5 cells/well) pre-coated with 1A7 or KLH control Ab (4 mg/well) plus increasing doses of anti-CD3 Ab. After incubation for 2 days, ^3H-thymidine was pulsed for 16 h, harvested, and counted for cpm in cells. […] Data are shown average±SD, n=3

[12] = test system: B16 cells; experiment: Experimental lung metastasis after i.v. injection of B16 cells; assay type: in vivo, mice
Procedure: as §2
1A7 SdAb was compared to other standard treatments (e.g., anti-PDL1 antibody, anti-VEGFR2 antibodies) for its ability to inhibit metastasis using the B16 cell model. Mice (n=5) were injected i.v. with KLH, 1A7 SdAb (10 mg/mouse), anti-DC-HIL (DCH), anti-PDL1 (PL1), anti-VEGFR2 (VER) or combined PL1/VER (PL/VE) mAb ([…]). Next day, mice were given i.v. injection of 2×10^5 B16 cells/mouse. Note: Ab injection was a one-time treatment. On Day 14, lung was enumerated by FACS for GFP^+ cells (FIG. 12A) and the number in 5×10^5 lung cells (average±sd, n=5) are summarized (FIG. 12B). *p<0.0001; **p=0.007. Data are representative of 2 separate experiments. […]

[13] = test system: B16 melanoma cells; experiment: B16 melanoma s.c. tumor growth, i.p. 1A7 or KLH Ab; assay type: in vivo, mice; conditions: 10 mg/mouse i.p. every 2 days 5× from day 6, vs KLH Ab
Procedure: as §2

binding of DC-HIL-Fc to each glycan as average RFU [3]: strongest binding
Molecule: GlcNS6S-GlcA-GlcNS6S-IdoA2S-GlcNS6S-IdoA2S-GlcNS6S-GlcA [Glycan #12]
Tumor volume (growth of kidney cancer) ([1]; RenCa in BALB/c mice, intra-tumoral glycan): markedly attenuated growth | tumor expression of angiogenic factors (qRT-PCR relative to GAPDH) ([1]; RenCa tumors): inhibited tumor expression of angiogenic factors | Tumor volume (growth of melanoma) ([2]; B16 s.c. in B6 mice, 1 mg glycan intra-tumorally 5 times every 2 days from day 6): markedly attenuated growth | tumor expression of angiogenic factors (qRT-PCR relative to GAPDH) ([2]; B16 tumors excised on day 17): inhibited tumor expression of angiogenic factors | DC-HIL-induced angiogenesis (blood vessels, Hb content of plugs) [4]: completely abrogated

competition with DC-HIL-Fc for binding to Glycan #12 (% inhibition) [5]: compete for a similar binding site
B1: 1A7: single domain antibody clone, single variable heavy chain (VH), SEQ ID NO: 18, specific for rare heparan sulfate glycan (Glycan #12) (protein)
VHH: QVQLLESGGGLVQPGGSLRLSCAASGVKVSTKSMGWVRQAPGKGLEWVSTIARNDGSTYYADSVKGRFTISRDNSKNTLYLQMNSLRAEDTAVYYCARMKKNGGSKRQPHIRSWGQGTLVTVSS
modifications: Synthetic construct - Clone 1A7
decrease of human melanoma in lung (GFP+ cells in 5×10^5 lung cells) [6]: 84% | spontaneous lung metastasis (tumor cells per field of view, X-gal) [7]: significantly reduced | lung metastasis: number of GFP+ cells in 5×10^5 lung cells ([8]; single 10 mg/mouse i.v. one day after (d1)): significantly reduced | lung metastasis: number of GFP+ cells in 5×10^5 lung cells ([8]; single 10 mg/mouse i.v. one day before (d-1)): significantly reduced | affinity for Glycan #12 (fluorescence intensity on HS glycan microarray) [9]: robust affinity | Tumor volume (melanoma growth) compared with PD1 Ab ([10]; 20 mg/mouse i.p. every 2 days from day 6, PD1 200 mg/mouse): better outcomes than PD1 Ab | tumor density of CD4 T cells (% positively stained areas, IHC) ([10]; tumors excised day 15): increased tumor densities | tumor density of CD8 T cells (% positively stained areas, IHC) ([10]; tumors excised day 15): increased tumor densities | tumor density of CD11b (% positively stained areas, IHC) ([10]; tumors excised day 15): decreased densities | tumor density of microvacuoles (CD31, % positively stained areas, IHC) ([10]; tumors excised day 15): decreased densities | T cell replication (activation), 3H-thymidine cpm [11]: significantly less replication | lung metastasis: number of GFP+ cells in 5×10^5 lung cells ([12]; B16 i.v., single 10 mg/mouse i.v. one day before (d-1), day 12, vs KLH): significantly reduced | growth of B16 metastasis (GFP+ cells in 5×10^5 lung cells) compared to other treatments ([12]; single i.v. 10 mg/mouse one day before B16 i.v., Day 14, comparators anti-PDL1, anti-VEGFR2 200 mg/mouse): inhibited growth of B16 metastasis, more than currently FDA-approved drugs | Tumor volume (tumor growth) [13]: significantly reduced
